Source: patent US20230192890A1

Assays:
[1] = target: T1, Ala mutant SEQ ID NO: 41 (human); experiment: ELISA, peptide on plate (10 ug/mL)
T1 sequence (peptide): EENMDDQWMQDEMEAGY

[2] = target: T2, Ala mutant SEQ ID NO: 29 (human); experiment: ELISA, peptide on plate (10 ug/mL)
T2 sequence (peptide): EEAMDDQWMQDEMEIGY

[3] = target: T3, Ala mutant SEQ ID NO: 36 (human); experiment: ELISA, peptide on plate (10 ug/mL)
T3 sequence (peptide): EENMDDQWMADEMEIGY

[4] = target: T4, Ala mutant SEQ ID NO: 31 (human); experiment: ELISA, peptide on plate (10 ug/mL)
T4 sequence (peptide): EENMADQWMQDEMEIGY

[5] = target: T5, Ala mutant SEQ ID NO: 30 (human); experiment: ELISA, peptide on plate (10 ug/mL)
T5 sequence (peptide): EENADDQWMQDEMEIGY

[6] = target: T6, Ala mutant having 3-amino acid substitution, SEQ ID NO: 44 (human); experiment: ELISA, peptide on plate (10 ug/mL)
T6 sequence (peptide): AAAMDDQWMQDEMEIGY

[7] = target: T7, Ala mutant SEQ ID NO: 28 (human); experiment: ELISA, peptide on plate (10 ug/mL)
T7 sequence (peptide): EANMDDQWMQDEMEIGY

[8] = target: T8, Ala mutant SEQ ID NO: 33 (human); experiment: ELISA, peptide on plate (10 ug/mL)
T8 sequence (peptide): EENMDDAWMQDEMEIGY

[9] = target: T9, Ala mutant SEQ ID NO: 43 (human); experiment: ELISA, peptide on plate (10 ug/mL)
T9 sequence (peptide): EENMDDQWMQDEMEIGA

[10] = target: Ala mutant SEQ ID NO: 34 (human); experiment: ELISA, peptide on plate (10 ug/mL)
[11] = target: T10, Ala mutant having 3-amino acid substitution, SEQ ID NO: 47 (human); experiment: ELISA, peptide on plate (10 ug/mL)
T10 sequence (peptide): EENMDDQWMAAAMEIGY

[12] = target: T11, Ala mutant having 3-amino acid substitution, SEQ ID NO: 46 (human); experiment: ELISA, peptide on plate (10 ug/mL)
T11 sequence (peptide): EENMDDAAAQDEMEIGY

[13] = target: T12, Ala mutant having 3-amino acid substitution, SEQ ID NO: 49 (human); experiment: ELISA, peptide on plate (10 ug/mL)
T12 sequence (peptide): EENMDDQWMQDEMEIAA

[14] = target: T13, Ala mutant SEQ ID NO: 37 (human); experiment: ELISA, peptide on plate (10 ug/mL)
T13 sequence (peptide): EENMDDQWMQAEMEIGY

[15] = target: T14, Ala mutant SEQ ID NO: 39 (human); experiment: ELISA, peptide on plate (10 ug/mL)
T14 sequence (peptide): EENMDDQWMQDEAEIGY

[16] = target: T15, Ala mutant SEQ ID NO: 42 (human); experiment: ELISA, peptide on plate (10 ug/mL)
T15 sequence (peptide): EENMDDQWMQDEMEIAY

[17] = target: T16, Ala mutant SEQ ID NO: 32 (human); experiment: ELISA, peptide on plate (10 ug/mL)
T16 sequence (peptide): EENMDAQWMQDEMEIGY

[18] = target: T17, Ala mutant SEQ ID NO: 27 (human); experiment: ELISA, peptide on plate (10 ug/mL)
T17 sequence (peptide): AENMDDQWMQDEMEIGY

[19] = target: T18, Ala mutant SEQ ID NO: 38 (human); experiment: ELISA, peptide on plate (10 ug/mL)
T18 sequence (peptide): EENMDDQWMQDAMEIGY

[20] = target: T19, Ala mutant SEQ ID NO: 40 (human); experiment: ELISA, peptide on plate (10 ug/mL)
T19 sequence (peptide): EENMDDQWMQDEMAIGY

[21] = target: T20, TA0096 (peptide antigen corresponding to positions 340 to 356 of PAD4) (human); experiment: ELISA, peptide on plate (10 ug/mL)
T20 sequence (peptide): EENMDDQWMQDEMEIGY

[22] = target: Ala mutant SEQ ID NO: 35 (human); experiment: ELISA, peptide on plate (10 ug/mL)
[23] = target: T21, Ala mutant having 3-amino acid substitution, SEQ ID NO: 48 (human); experiment: ELISA, peptide on plate (10 ug/mL)
T21 sequence (peptide): EENMDDQWMQDEAAAGY

[24] = target: full-length recombinant mouse PAD4 (mouse) (UniProt Q9Z183); experiment: ELISA, mouse PAD4 on plate, antibody 0.015625 ug/mL
[25] = target: full-length recombinant mouse PAD4 (mouse) (UniProt Q9Z183); experiment: ELISA, mouse PAD4 on plate, antibody 1 ug/mL
[26] = target: full-length recombinant mouse PAD4 (mouse) (UniProt Q9Z183); experiment: ELISA, mouse PAD4 on plate, antibody 0.0002441 ug/mL
[27] = target: full-length recombinant mouse PAD4 (mouse) (UniProt Q9Z183); experiment: ELISA, mouse PAD4 on plate, antibody 0.0039063 ug/mL
[28] = target: full-length recombinant mouse PAD4 (mouse) (UniProt Q9Z183); experiment: ELISA, mouse PAD4 on plate, antibody 0.0009766 ug/mL
[29] = target: full-length recombinant mouse PAD4 (mouse) (UniProt Q9Z183); experiment: ELISA, mouse PAD4 on plate, antibody 0.0625 ug/mL
[30] = target: full-length recombinant mouse PAD4 (mouse) (UniProt Q9Z183); experiment: ELISA, mouse PAD4 on plate, antibody 0.25 ug/mL
[31] = target: full-length recombinant mouse PAD4 (mouse) (UniProt Q9Z183); experiment: ELISA, mouse PAD4 on plate, antibody 6.104E-05 ug/mL

full-length recombinant mouse PAD4 (mouse), sequence (Q9Z183 whole entry): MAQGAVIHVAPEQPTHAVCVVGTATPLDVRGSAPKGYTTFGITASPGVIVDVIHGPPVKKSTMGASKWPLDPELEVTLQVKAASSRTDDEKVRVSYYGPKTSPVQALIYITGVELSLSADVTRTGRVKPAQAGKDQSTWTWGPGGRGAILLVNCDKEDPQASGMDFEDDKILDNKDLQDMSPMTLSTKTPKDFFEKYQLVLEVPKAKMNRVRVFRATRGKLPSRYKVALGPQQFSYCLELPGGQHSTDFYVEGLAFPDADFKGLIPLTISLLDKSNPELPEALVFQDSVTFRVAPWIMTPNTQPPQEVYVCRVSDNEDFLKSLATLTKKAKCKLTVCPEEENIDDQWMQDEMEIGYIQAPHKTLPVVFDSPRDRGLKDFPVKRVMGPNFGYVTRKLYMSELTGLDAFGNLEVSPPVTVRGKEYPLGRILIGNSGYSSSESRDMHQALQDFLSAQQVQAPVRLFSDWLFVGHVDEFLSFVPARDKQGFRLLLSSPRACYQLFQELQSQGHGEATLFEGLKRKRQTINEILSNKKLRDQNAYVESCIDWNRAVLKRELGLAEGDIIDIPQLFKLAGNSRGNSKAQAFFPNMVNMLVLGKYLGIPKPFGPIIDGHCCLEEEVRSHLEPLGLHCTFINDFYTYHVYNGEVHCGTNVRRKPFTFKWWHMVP

absorbance 490 nm/630 nm [1]: 0.01 OD
absorbance 490 nm/630 nm [2]: 0.001 OD
absorbance 490 nm/630 nm [3]: 0.008 OD
absorbance 490 nm/630 nm [4]: 0.004 OD
absorbance 490 nm/630 nm [5]: 0.009 OD
absorbance 490 nm/630 nm [6]: 0.054 OD
absorbance 490 nm/630 nm [7]: 0.001 OD
absorbance 490 nm/630 nm [8]: 0.011 OD
absorbance 490 nm/630 nm [9]: 0.057 OD
absorbance 490 nm/630 nm [10]: 0.017 OD
absorbance 490 nm/630 nm [11]: 0.052 OD
absorbance 490 nm/630 nm [12]: 0.052 OD
absorbance 490 nm/630 nm [13]: 0.065 OD
absorbance 490 nm/630 nm [14]: 0.01 OD
absorbance 490 nm/630 nm [15]: 0.008 OD
absorbance 490 nm/630 nm [16]: 0.017 OD
absorbance 490 nm/630 nm [17]: 0.012 OD
absorbance 490 nm/630 nm [18]: 0.007 OD
absorbance 490 nm/630 nm [19]: 0.012 OD
absorbance 490 nm/630 nm [20]: 0.011 OD
absorbance 490 nm/630 nm [21]: 0.052 OD
absorbance 490 nm/630 nm [22]: 0.011 OD
absorbance 490 nm/630 nm [23]: 0.052 OD
absorbance 490 nm/630 nm [24]: 0.018 OD
absorbance 490 nm/630 nm [25]: 0.028 OD
absorbance 490 nm/630 nm [26]: 0.034 OD
absorbance 490 nm/630 nm [27]: 0.024 OD
absorbance 490 nm/630 nm [28]: 0.021 OD
absorbance 490 nm/630 nm [29]: 0.02 OD
absorbance 490 nm/630 nm [30]: 0.023 OD
absorbance 490 nm/630 nm [31]: 0.011 OD
Substance: anti-dinitrophenyl (DNP) antibody (negative control)
